The supplement of paper PMC12042874
± gives the uncertainty stated by the source.

experiment: amyloid nucleation score (Sup35N fusion, yeast selection) (log enrichment); library NNK1; higher = more nucleation; inactive = no reads after selection
Summary of the method: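 For the nucleation score, DiMSum gave the log enrichment of output over input reads, centred on the mode score of non-aggregating sequences. Psi-negative yeast expressing Sup35N fused to peptides of 20 random codons were induced with 100 μM copper sulfate for 24 hours and grown 7 days at 30°C on medium lacking adenine and uracil. Input and output plasmid inserts were Illumina-sequenced, and sequences with under 100 input reads were excluded.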

In order of rising amyloid nucleation score:
1. PIFAVTKVQVMRPH  -1.94 ± 2.7
2. QGNHVKCVLCRVIPMRCLGL  -1.41 ± 1.1
3. QFLALVCFCIPRLVRLAGYE  -1.35 ± 1.1
4. PLKFTSSMSG  -1.23 ± 0.51
5. PSRDSV  -1.06 ± 1.2
6. PIYGFCSIALGSMLIIPRLL  -1.05 ± 0.77
7. QKYPSWINFPYF  -0.935 ± 0.97
8. NVIWVASYF  -0.914 ± 0.44
9. PCLVSCHPGADAYLYDNLEV  -0.856 ± 2.4
10. PLRDGA  -0.856 ± 2.4
11. QANAMNYKEKLFNFRYRGAM  -0.722 ± 0.53
12. PLHAANDLSCPENLDVWYHE  -0.696 ± 0.83
13. QGTRGRCGFSRDEVECVVRR  -0.673 ± 1
14. QLLSISRILLMNRELRRR  -0.623 ± 1
15. QGGTVCLEF  -0.578 ± 0.34
16. QKGLDVVWYDTRSDMYNKIL  -0.569 ± 0.7
17. QCWEWIR  -0.564 ± 0.84
18. PTRYRKLKRQAKATYIHSNP  -0.552 ± 1.6
19. PSVTTS  -0.482 ± 0.58
20. PYSAQAFERRSHAIRGVSKN  -0.438 ± 0.44
21. PRSDNSFSVQVEFVDICEVK  -0.437 ± 0.56
22. PWDSHSHHSTNRQLRFSSSG  -0.397 ± 0.6
23. PSSLLNMDTTRGYHDPEWGI  -0.381 ± 0.3
24. QLLFRRYKMGIVSRYSVITR  -0.339 ± 0.53
25. QIVRTRFNRYR  -0.313 ± 1.1
26. PCTRHCLRLHLAFMWLILAI  -0.31 ± 0.4
27. PSSGLFASLIVMSTVRTDLI  -0.307 ± 0.38
28. PCSVISGHLTSMSSLSLFGG  -0.299 ± 0.32
29. NYCYSFIKYPLEPVKFLSAV  -0.239 ± 1.1
30. PVNLGSDVYYNVRSQCGSMY  -0.218 ± 0.23
31. PFSVWSPPMMDPVHNIFWVR  -0.203 ± 0.49
32. QAKLPLTIDCMKCGTVGTGR  -0.16 ± 0.34
33. PVVCYTVAFVTGSTDVV  -0.139 ± 1.3
34. PNIEPCLSSFVSKSLDDPRT  -0.127 ± 0.37
35. PSNPFHCVMKARKSLNGIDR  -0.09 ± 0.29
36. QAVRDVRLCN  -0.073 ± 0.61
37. PYGIGIFNYLWATGMNLSQA  -0.071 ± 0.43
38. QHHMVEIWPSDECVEWLVSS  -0.034 ± 0.22
39. NVWLWDTKFILQTRIPS  -0.026 ± 1.7
40. PDVVSTSLILGGLNSPELEH  0.016 ± 0.6
41. PLRDKESVLMWLYSYWVTNI  0.017 ± 0.32
42. PGYYLEYFLYVNLSWAKTWG  0.018 ± 0.27
43. PNYIRGSIINYILEYSISIN  0.02 ± 0.39
44. PGLLMNRVPVSSTQYIYLEQ  0.029 ± 0.75
45. PHDSFLMHTDSGEHWGPVYR  0.037 ± 0.36
46. QGILCFSIHSSNSMTGNTVF  0.038 ± 0.25
47. PGSANASLTERFLMKMVGED  0.053 ± 0.78
48. NTYWVSSAS  0.078 ± 0.64
49. PPHLLFCYNMVLTWWLYAFA  0.088 ± 1.2
50. PSGTGWRLDGSV  0.09 ± 0.38
51. NTMLQKVKCWKRRVDSSRQE  0.093 ± 0.87
52. PCFSLLDSQRFVFGAKIILR  0.093 ± 0.69
53. QIQIT  0.152 ± 1
54. PFNFIPFAYRLYRKTYRTSH  0.165 ± 0.46
55. PFGGDFTF  0.187 ± 0.24
56. QGSYLHLSIKWLAFRSMS  0.19 ± 0.4
57. QDGLGLTDAVRRTGFVGRTH  0.197 ± 0.86
58. QKYPPRGNRFSLCRITVSCF  0.22 ± 0.89
59. QDFSVTPHGV  0.228 ± 0.62
60. PSWSPKAIKFQHVLYFVKFL  0.236 ± 0.59
61. QHPIWCNRSPLTHDRDTVG  0.239 ± 0.24
62. PYLVVVTHMAMASHWDLLLP  0.25 ± 0.41
63. PFQECFLRKVYWIIWRSRPK  0.255 ± 1.2
64. PKMAPRNINVGRS  0.26 ± 0.54
65. QHLRFSFVPE  0.312 ± 0.46
66. NVSVENLGYTLSIPSSMICS  0.319 ± 0.23
67. PVRQSL  0.343 ± 0.33
68. PNPWRLRWLLALDMNLVGLQ  0.376 ± 1.1
69. QFMGCRFKLSDSSIWKKSLR  0.381 ± 0.64
70. PYFDTEHERVKDH  0.398 ± 0.62
71. PFVNW  0.432 ± 0.84
72. NVCPFWGYKDAW  0.435 ± 0.22
73. QGRLYSH  0.438 ± 0.39
74. PMVTSSCFRCTLLCSQFWQF  0.444 ± 0.26
75. PDCRSYLTIF  0.486 ± 0.31
76. PIKEVPNTSRLLFSVCMKWH  0.504 ± 0.74
77. NVSDWSHVFMSMFLIMGGCN  0.509 ± 0.66
78. PNIKLSDRLGIIRREIWMVV  0.54 ± 0.39
79. PTAEV  0.545 ± 0.76
80. PYIRVRLFMVVY  0.659 ± 0.56
81. PMLNFEIMVRHDRRRLYKVC  0.714 ± 0.42
82. PWADVR  0.721 ± 0.38
83. PHYRTSFVKHPLL  0.73 ± 0.54
84. NWAKGNCYVAFRLKWRYNCG  0.745 ± 0.74
85. NVILFNYLREILRLCYMACM  0.758 ± 0.81
86. QLEDAVKMGLVEFEGRSHGS  0.78 ± 0.29
87. QFPERWDPFLPMSRASRYYH  0.865 ± 0.69
88. NVMCAGYIIMGATMYKKWVM  0.902 ± 0.29
89. NYSYNYLVVKRENTGYSGQV  0.917 ± 0.42
90. PMIPKFMSERCQLIWWM  0.961 ± 0.7
91. NVTIVGS  1.02 ± 0.46
92. PIVLWTIIPNTFKS  1.25 ± 0.17
93. NYVGWLLCASILVRYNGTLE  1.26 ± 0.77
94. NVYWNRWAMTFWLSGDEMWF  1.27 ± 0.42
95. PDGPANSSKDGDFCDKLR  1.4 ± 0.6
96. QHVMPWPWWMGLSSLDRWYL  1.44 ± 0.49
97. QFSRTRFFICGLGRSAPAVR  1.53 ± 0.85
98. NTCYALIMVLYRRDRGPANM  1.55 ± 0.17
99. QLAERTGVHCSQFTKWFFKM  1.72 ± 0.38
100. PSIGMVF  1.77 ± 0.53
101. PLFVVRIDEISSDSIRGAGH  1.88 ± 0.53
102. NVSVVSSHMLICMGMATRNP  1.92 ± 0.36
103. QCYIGVKYHSALVWDHTPEA  2.29 ± 0.61
104. QLVIILERRSWCHIL  2.42 ± 0.27
105. NTGWDRGHGCSLMFHRVLEW  2.67 ± 0.13
106. PTKSIMLFCLGLFCGYLARA  2.91 ± 0.093
107. PKFSLMQLTPGLGTQ  3.13 ± 0.13
108. NTHILYVWSVMCGHMN  3.35 ± 0.11
109. PHIIFNVVTITYMISALRHV  3.49 ± 0.09
110. NYCFLNQDFCD  3.61 ± 0.2
111. NVIYFNVLVAPLHIPMLDLG  3.75 ± 0.14
112. NYVIGRVIISMYGNDVTRLP  4.23 ± 0.095
113. NVFLVRAYLMENVHFYDFMC  4.54 ± 0.14
114. PQLRLLPGVLGNPGNGHSRI  4.59 ± 0.098
115. PNQVYGTAFCGDEKNRMRWK  4.6 ± 0.079
116. NVKICDGAIIYMSSMASFEL  4.79 ± 0.092
117. PVCHLSGFFFLYDSGCSD  4.82 ± 0.069
118. QHWNGTNNMILYYFPRPSAR  5.25 ± 0.065
119. QKRAMYDLGCSFSLFNLCYQ  5.28 ± 0.062
120. QLTVYMFFCYC  5.378 ± 0.044
121. PCYAVYITAPINV  5.94 ± 0.093
122. NYSYVTWNLFGQSPICSLWY  6.103 ± 0.049
123. NYREGVVIILNNPDYCRRER  6.36 ± 0.091
124. PFLAKVLCNVWNI  6.8 ± 0.047

With NVSSIFITQY the amyloid nucleation score was “inactive”.
In the case of PALDAYSQKFELTCCLDTLH, the amyloid nucleation score is reported as “inactive”.
With PLTVVLRSV the amyloid nucleation score was “inactive”.
